According to the domain aggregation screens of Martell et al. (2025):

Experiment: soluble fraction after stress (log2 fold change); higher = more stays soluble; pooled small domains, quantitative proteomics
Conditions: stress: 50 degC
Summary of the method: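 The stress applied to every library was 50°C. These custom libraries of small protein domains were pooled and measured at high throughput with quantitative proteomics as the read-out. Aggregation propensity is expressed as the base-two logarithm of the fold change in how much of each protein remains soluble. The higher the value, the more of that protein stays in solution.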
For “HMAERLQARIDAPGVRLDKALAETFPTLSRARLQALLADGAVTRDGQTVSNGSAKAQPGLYVVALPPVA”, the “soluble fraction (log2)” value was 0.381.
For “HMSDQTYVKDPETGEIFRVHKRVWETGEFWRDPVWGNILGGVERGSELERLLREEGWRPLQQSLEGFPEQ”, the “soluble fraction (log2)” value was -0.104.
In the case of “HMDMSDFEVVRDMYLTGKVWNAGDIVEAKGITGEVVRKGTNYLSFVDKNGKVHKAWLHEIEL”, the “soluble fraction (log2)” value is reported as -0.188.
With “HMALYSEQVSEIEKALMSLPPKYQLVMLLLYAEDLKYEQIAEILDEPIGTVKTKIHRARKILKERF” the “soluble fraction (log2)” value was -0.46.
In the case of “HMKLSLKTQVKEYLLSYIRDKKLQPGDRLLTQRELAEMLHTSQKVAQMALNSLEEEGIIIRRLGSGSFLAR”, the “soluble fraction (log2)” value is reported as -1.11.
In the case of “HMSVPQENKDLLGRSIEIFYAGKTVEAKVTDTGALAPLGRALDLSPATWRAFGASSISDWGVRGVFYRFVA”, the “soluble fraction (log2)” value is reported as 0.0464.
With “HMEPEVSNTYEKVLGMHHFSSTRSHQLHDLVRQANALELSLGEIESIAQSAKDGAQVISDIKHWMEPNRQ” the “soluble fraction (log2)” value was 0.266.
In the case of “HMDVLFGNRLRQLLDERNISQAHFADRIGVSRSRMNNYVAQRSEPDYATLIRIANTLDTSIDFLLGKS”, the “soluble fraction (log2)” value is reported as -1.93.
In the case of “HMLTDAAAVKRSVRNLVQYGFYEKPFHPEIGSGVRDLLFENMTPFVANNLSKQIEEIITNYEPRA”, the “soluble fraction (log2)” value is reported as -0.396.
In the case of “HMESPSGGHRIALAFDQGTARAVDATYARLTGAGYEGRTKPWDAPWGQRYATVFDPDGNSVDLFAALE”, the “soluble fraction (log2)” value is reported as -0.263.
For “HMPTSLPGIDIDEKNIVSSTGALSFKKVPKKLAIIGGGYIGLEMGSVWSRLGSSVTVIEYLNFITPG”, the “soluble fraction (log2)” value was -0.00687.
In the case of “HMAQMDDPEMVLHIYNKMIQQRLFDTAVGYSYLKDLQEYLQSIPFIRKEDIFPIPVQHPQVEESLRKAK”, the “soluble fraction (log2)” value is reported as -0.367.
For “HMGTMKGFVDGSSVHLRSGPSLSESIRAKVVKGQTLYITERRGDWYRATVHGGGEGWIHTSLVKLAG”, the “soluble fraction (log2)” value was 0.178.
With “HMGTAESIRLFLSSGLIKGVGEALAGRIVDTFGTDTFDIIENHPELLAGVKGISHRLAMSIYESFSQHIGV” the “soluble fraction (log2)” value was -1.03.
In the case of “HMRIAQYRQIENDLLEQINLGYYKKGDLIPTELELSATYHVSRVTVRKATDNLVAKGILQRVAGVGTFVSR”, the “soluble fraction (log2)” value is reported as -1.87.
With “HMNDRLAGMEGQRGEAATNFDQGEGKVKVGDTVWLAKQSDSTVIVEGDQIVVTGSENGLLKVRL” the “soluble fraction (log2)” value was -0.165.
In the case of “HMTTSNPMNVTSAEAAFDNGTDRLNAFISGRTTSEERSTYFPLFVRETKEDFLRAVGRFNEYIANHG”, the “soluble fraction (log2)” value is reported as 0.0364.
With “HMSDDAVVRMRVPEDALGLSLRETDFRQRFGVYVLAIETRDGKLLAPPDPQRPLGKDDVLVVIQKR” the “soluble fraction (log2)” value was -0.138.
In the case of “HMQETMTNDEVISLTKAGLSSSIIIGKIRSSATNFDLSTDSLIKLKQAGVSDETVAAMLEAKS”, the “soluble fraction (log2)” value is reported as 0.0855.
With “HMDQDLGFLINKYFELGKDYNTLVEIYEKIKEYIASIDKKMLEYTKNFTIEQLKKWLDDGTINNIILTLG” the “soluble fraction (log2)” value was -0.142.
With “HMKNLKLVSNTDGIRIDSWLADEFEDYSRSYLRKLIDQDLVYVNGNKIKANYKLKKGDEISISIPEPE” the “soluble fraction (log2)” value was 0.142.
For “HMVETDQESSLIQAIYKYFEITGDNTFFDEKVGEKTVADRMEWAMDYLIQNRFSEEYGLIWGA”, the “soluble fraction (log2)” value was -0.2.
With “HMFDTVTIGRKIAELRKAHNMTQFELADALGISFQAVSNWERGASMPDISKLPELAEIFGVTIDEVLGK” the “soluble fraction (log2)” value was -0.839.
In the case of “HMAVDAASSTIGKNVEVSVANEKGDYENFNGKVKSASIKDGVVYLELELKDTGEIKEVPYSSLTKIT”, the “soluble fraction (log2)” value is reported as 0.0595.
For “HMKSNIIPLSLKKPQRLDIFLTNYFVDLSRTQIKKMITDGNIKVNDLIAKPSLKLIGDEIIFYTLPK”, the “soluble fraction (log2)” value was -1.24.
For “HMAWAVRAGEGVLIRAGQPGFSATTRGTALSNGAIGEGVRVRNLGSGKEIQAWVVDKGEVETR”, the “soluble fraction (log2)” value was 0.0168.
In the case of “HMLIIMNSDATKEQVDHVTSRVREAGFKDHIMPGAGKVAIGVTGTGDYDQTKLHLEILPGVFKIMRITK”, the “soluble fraction (log2)” value is reported as 0.0895.
For “HMRPDDPYLVIGASREMGDEELKRHYRRLVAETHPDRGIARGLPAEAIAIATRRLAAINAAWDAIERERGL”, the “soluble fraction (log2)” value was 0.035.
For “HMAIIQSNNIFKSQKEIVDEILVELDIPKDKWNFFHMLISSGYKDEFDTNRIYEIIQTNYNMMDR”, the “soluble fraction (log2)” value was -0.205.
With “HMETPSNTAGITHATSDGYIFKGESDIIGRNSFGFIVKHGSHNHIIPFDSLRGTKWEYLINKYT” the “soluble fraction (log2)” value was 0.21.
For “HMIGVIVDEVDPDSSLKSGDIITEVNREVILNIDDFVGLVEQIQKTGRSSLLLKILRDKKSLWVTIQFV”, the “soluble fraction (log2)” value was 0.0885.
In the case of “HMQALTLVGQDAKDAKAALDAVDIQPAKTETDRYIYVLTEQQAQELGRTVDALYGVEGSLTLILEV”, the “soluble fraction (log2)” value is reported as 0.0301.
For “HMSFKQARFMMDAANGKALAWLYSHAEVLDRKDQGENIEIHVMISPADLSRFVNAFGYQPVQS”, the “soluble fraction (log2)” value was -0.2.
For “HMHAEEIAREAKEALERGEEFHFAGITVRSEEALEFLEEWLRKFF”, the “soluble fraction (log2)” value was -0.659.
In the case of “HMRVGISRNSGAAGIAVWLTQKLGRPVAKTEEIVHILKNWVDDQYEAGRVTNIGDGELWSVYKQMEAEE”, the “soluble fraction (log2)” value is reported as -0.359.
For “HMKELLDRIFLHETMRRVSQDATITFSKKVYEVPQKFIGRQVTVQYDPEDLSRVYVKDLNFPEPVMVYPVQ”, the “soluble fraction (log2)” value was -0.843.
In the case of “HMEMTEDEITKQFDAMEREAKKEIDTGADKRAFMYGVSRTAAGMAGKNPKYARFITDKAKEVIENIAKYK”, the “soluble fraction (log2)” value is reported as 0.108.
For “HMENSPLTHREAEVMRLMSEGKSNRAISEHLVISEKTVKNHVSSILQKMSVDDRTQAVLQAIKNGWVD”, the “soluble fraction (log2)” value was 0.23.
With “HMNFDLDSFKQRMTLDGLYFGNEKQDVIALNNLSERYQLTWFDVYQLAKETSSNHKILPKRILVKLQQ” the “soluble fraction (log2)” value was -1.07.
With “HMETISEIWRLIDGLDEIYRVPLTMYYRSNRSVREIAETLGLSARTVETRIYRARRMIREKWSN” the “soluble fraction (log2)” value was -2.23.
In the case of “HMPVSLHEQIQQARIRAEQNVEGISLLLQVNPKYYEQIEAGDVIPDQDLLKRISSLFGWNYHEMLHREKSS”, the “soluble fraction (log2)” value is reported as -0.239.
With “HMPLNAHIVGRGKRDRRGKRGAPYSIVLELGRDENGKRIQKWYSGYPTKAAAEEDKIRMLRELQTGEYVPQ” the “soluble fraction (log2)” value was -0.309.
For “HMSTFKSYRGKITASSGVNIRTGAGTNYNKNGALTYNSVVTIVDEKKVSGTTWGKLADGRGWISLDYLKK”, the “soluble fraction (log2)” value was -0.554.
In the case of “HMTMEFGEFLAKLRKERGYYQKEVAAYLNVTVATISNYEKNVHAPDLDTLVKLADFYDVSTDYLLQRT”, the “soluble fraction (log2)” value is reported as -2.98.
In the case of “HMKRSFGYIRLLPSKRYQASYIGPDSQRHAAPETFTRKMDAEGWLSAERRLIEWDQWTSPEQRAAQARLD”, the “soluble fraction (log2)” value is reported as -0.591.
With “HMKSLHSEVTDRIRQLIVESHLQPGQRVPELEISRDLGVSRTPIREALKVLAAEGLVELLPLRGAMVK” the “soluble fraction (log2)” value was 0.0612.
With “HMHEHWDGSGFPKHLRGANIPLGARVIAVADTYDSITSSRAYRAGSTHEAAEREMRRVSGTQLDPE” the “soluble fraction (log2)” value was 0.137.
In the case of “HMLAVSVDKDGKVYIQDSETAVDAVTAKLRAISGNNSEIRIFVRGDADVNYGRIMEIMGVINAAGFRKVAL”, the “soluble fraction (log2)” value is reported as -0.467.
With “HMLKDKLSDKDFDFYKNKIQIQLQGNPTELKELVRRFSSTEEQQILKTIDYMLDNGFLRIDEDNMIYWK” the “soluble fraction (log2)” value was -0.00515.
For “HMTVSLLQTRQRLQALADLGHYKGDLGAAWGPDAIEALKKAQATLGVTVDGKWGPQTEDAIQVALKVQ”, the “soluble fraction (log2)” value was -0.284.
For “HMGLQDLFLNSLRKSKTPVTMFLVKGVKLQGVVTWFDNFSVLLRRDGMSQLVYKHSISTIMP”, the “soluble fraction (log2)” value was -0.0722.
For “HMEVDDEAIYQGHEPSIRLHRLLKDVGYNSALLPSVVTQIFKDFPGIELAKALPIAMQLLNED”, the “soluble fraction (log2)” value was -0.403.
With “HMLKEGQYSPNHFHWHKMEDIINRGGGTLLIRVYNSLPDEEIDRESDVTVHMDGVTRTVPAGTQLRLE” the “soluble fraction (log2)” value was -0.229.
For “HMDILEVLIKKDLAMELLEQLTERQRTVVYLRYFYQLNQKEIADYLGISQQRVSEILSRAKAVLTAYTKK”, the “soluble fraction (log2)” value was -1.43.
In the case of “HMELSSRQAMIVDIVRKYEPITSEQIADKLNLTRSALRPDLAVLTMIGILEARPRVGYFFTGK”, the “soluble fraction (log2)” value is reported as 0.141.
